Assay results: patent US20170298096A1 (CANIMGUIDE THERAPEUTICS, published 2017)
No end group written: not given here.

B1: P28R D4A (peptide)
peptide: KKLATFFVKLSLFTER
B2: P28R D4V (peptide)
peptide: KKLVTFFVKLSLFTER
B3: P28R D4T (peptide)
peptide: KKLTTFFVKLSLFTER
B4: P28R D4S (peptide)
peptide: KKLSTFFVKLSLFTER
B5: P28R E15H (peptide)
peptide: KKLDTFFVKLSLFTHR
B6: P28R F6V (peptide)
peptide: KKLDTVFVKLSLFTER
B7: P28R D4W (peptide)
peptide: KKLWTFFVKLSLFTER
B8: P28R E15M (peptide)
peptide: KKLDTFFVKLSLFTMR
B9: P28R E15Y (peptide)
peptide: KKLDTFFVKLSLFTYR
B10: P28R E15Q (peptide)
peptide: KKLDTFFVKLSLFTQR
B11: P28R F6W (peptide)
peptide: KKLDTWFVKLSLFTER
B12: P28R F6I (peptide)
peptide: KKLDTIFVKLSLFTER
B13: P28R E15K (peptide)
peptide: KKLDTFFVKLSLFTKR
B14: P28R E15I (peptide)
peptide: KKLDTFFVKLSLFTIR
B15: P28R F6K (peptide)
peptide: KKLDTKFVKLSLFTER
B16: P28R D4I (peptide)
peptide: KKLITFFVKLSLFTER
B17: P28R F6Q (peptide)
peptide: KKLDTQFVKLSLFTER
B18: P28R F7E (peptide)
peptide: KKLDTFEVKLSLFTER
B19: P28R E15V (peptide)
peptide: KKLDTFFVKLSLFTVR
B20: P28R F7A (peptide)
peptide: KKLDTFAVKLSLFTER
B21: P28R F7D (peptide)
peptide: KKLDTFDVKLSLFTER
B22: P28R F6A (peptide)
peptide: KKLDTAFVKLSLFTER
B23: P28R E15S (peptide)
peptide: KKLDTFFVKLSLFTSR
B24: P28R F6N (peptide)
peptide: KKLDTNFVKLSLFTER
B25: P28R D4L (peptide)
peptide: KKLLTFFVKLSLFTER
B26: P28R F6L (peptide)
peptide: KKLDTLFVKLSLFTER
B27: P28R D4F (peptide)
peptide: KKLFTFFVKLSLFTER
B28: P28R D4N (peptide)
peptide: KKLNTFFVKLSLFTER
B29: P28R D4Y (peptide)
peptide: KKLYTFFVKLSLFTER
B30: P28R D4E (peptide)
peptide: KKLETFFVKLSLFTER
B31: P28R F6H (peptide)
peptide: KKLDTHFVKLSLFTER
B32: P28R E15W (peptide)
peptide: KKLDTFFVKLSLFTWR
B33: P28R E15T (peptide)
peptide: KKLDTFFVKLSLFTTR
B34: P28R E15R (peptide)
peptide: KKLDTFFVKLSLFTRR
B35: P28R D4R (peptide)
peptide: KKLRTFFVKLSLFTER
B36: P28R E15F (peptide)
peptide: KKLDTFFVKLSLFTFR
B37: P28R E15A (peptide)
peptide: KKLDTFFVKLSLFTAR
B38: P28R F6D (peptide)
peptide: KKLDTDFVKLSLFTER
B39: P28R F6M (peptide)
peptide: KKLDTMFVKLSLFTER
B40: P28R F6Y (peptide)
peptide: KKLDTYFVKLSLFTER
B41: P28R F6E (peptide)
peptide: KKLDTEFVKLSLFTER
B42: P28R D4H (peptide)
peptide: KKLHTFFVKLSLFTER
B43: P28R D4M (peptide)
peptide: KKLMTFFVKLSLFTER
B44: P28R E15L (peptide)
peptide: KKLDTFFVKLSLFTLR
B45: P28R D4Q (peptide)
peptide: KKLQTFFVKLSLFTER
B46: P28R F6R (peptide)
peptide: KKLDTRFVKLSLFTER
B47: P28R F6T (peptide)
peptide: KKLDTTFVKLSLFTER
B48: P28R D4K (peptide)
peptide: KKLKTFFVKLSLFTER
B49: P28R E15D (peptide)
peptide: KKLDTFFVKLSLFTDR
B50: P28R F6S (peptide)
peptide: KKLDTSFVKLSLFTER
B51: P28R E15N (peptide)
peptide: KKLDTFFVKLSLFTNR
B52: SEQ ID NO 513 (peptide)
peptide: KKLDTFFQKLSLFTER
B53: SEQ ID NO 523 (peptide)
peptide: KKLDTFFVVLSLFTER
B54: SEQ ID NO 514 (peptide)
peptide: KKLDTFFVKLSLFYER
B55: SEQ ID NO 529 (peptide)
peptide: KKLDTFFVKLSLFTEM
B56: SEQ ID NO 522 (peptide)
peptide: KKLDTFFVKLFLFTER
B57: SEQ ID NO 518 (peptide)
peptide: KKLDTFFVNLSLFTER
B58: SEQ ID NO 528 (peptide)
peptide: KKLDTFFVKLSLFTEH
B59: SEQ ID NO 532 (peptide)
peptide: KKLDTFFVKLELFTER
B60: SEQ ID NO 520 (peptide)
peptide: KKLDTFFVKLSLFCER
B61: SEQ ID NO 526 (peptide)
peptide: KKLDTFFVWLSLFTER
B62: SEQ ID NO 525 (peptide)
peptide: KKLDTFFVKLSLFTLR
B63: SEQ ID NO 521 (peptide)
peptide: KKLDTFFVKLSLFTEV
B64: SEQ ID NO 530 (peptide)
peptide: KKLDKFFVKLSLFTER
B65: SEQ ID NO 527 (peptide)
peptide: KKLDTFFVELSLFTER
B66: SEQ ID NO 515 (peptide)
peptide: KKLGTFFVKLSLFTER
B67: SEQ ID NO 524 (peptide)
peptide: KKLDTFFVKLSLFTMR
B68: SEQ ID NO 531 (peptide)
peptide: KKLDTFFVKLSLFTRR
B69: SEQ ID NO 517 (peptide)
peptide: KKLDTFFVKLSLFKER
B70: SEQ ID NO 519 (peptide)
peptide: KKLDTFFCKLSLFTER

Biological target: T1, His-tagged P3028 (human, not fully specified)
T1 construct: the tag is put first after 'PGE73=His-tag-P3028'; also called PGE73; not shown: His-tag
T1 peptide: {His‑tag}-VFDEFKPLVEEPQNLIK
Experiment: chip ELISA

In order of falling ELISA signal:
1. B22  575
2. B6  547
3. B1  494
4. B47  481
5. B39  467
6. B12  466
7. B24  446
8. B7  443
9. B50  432
10. B16  430
11. B20  426
12. B2  424
13. B29  422
14. B30  417
15. B17  410
16. B26  408
17. B3  405
18. B49  404
19. B43  384
20. B18  381
21. B27  380
22. B40  364
23. B11  348
24. B45  345
25. B4  344
26. B10  344
27. B9  340
28. B31  332
29. B13  324
30. B5  318
31. B35  317
32. B42  317
33. B15  309
34. B46  309
35. B25  303
36. B21  301
37. B28  296
38. B48  274
39. B8  247
40. B44  246
41. B34  237
42. B41  229
43. B32  226
44. B38  193
45. B37  174
46. B23  165
47. B14  163
48. B19  163
49. B51  161
50. B33  152
51. B36  137

Biological target: T2, His-tagged P3028 (human, also: His-tag, terminus and sequence not given here)
T2 construct: in solution at 0.5 ug/mL over the peptide cards; found with anti-His-tag antibody and rabbit anti-mouse peroxidase (rampo); also called PGE73; not shown: His-tag
T2 peptide: VFDEFKPLVEEPQNLIK
Experiment: PEPSCAN chip ELISA, His-P3028 in solution;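 note: score is the raw OD at 405 nm from peroxidase colour with ABTS, imaged by CCD camera before and after staining, with wells showing air bubbles set to zero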

In order of rising “RAMPO Score” value:
1. B59  234 rampo score
2. B64  237 rampo score
3. B68  237 rampo score
4. B55  238 rampo score
5. B58  239 rampo score
6. B65  240 rampo score
7. B61  245 rampo score
8. B62  246 rampo score
9. B67  247 rampo score
10. B53  248 rampo score
11. B56  250 rampo score
12. B60  254 rampo score
13. B63  254 rampo score
14. B70  254 rampo score
15. B57  256 rampo score
16. B69  259 rampo score
17. B66  264 rampo score
18. B54  270 rampo score
19. B52  271 rampo score
